From doi:10.1101/398008

Target: IMP3 KH1-2 WT (human, UniProt O00425 192-355)
Assay: ITC

Sequence of IMP3 KH1-2 WT (O00425 192-355): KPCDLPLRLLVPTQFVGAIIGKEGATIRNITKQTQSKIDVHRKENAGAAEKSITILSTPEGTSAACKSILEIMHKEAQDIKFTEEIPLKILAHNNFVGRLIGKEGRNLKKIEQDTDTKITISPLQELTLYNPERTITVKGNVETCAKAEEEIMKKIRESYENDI

B1: 34-mer (ssRNA)
RNA: AACACAAUUUUGGAGGAACUACAGAAUGCGGCUA
For B1, the binding signal was ~10 fold higher affinity than 7-mer RNAs.
